Assay results: publication PMC4612562, “Coronin 2A (CRN5) expression is associated with colorectal adenoma-adenocarcinoma sequence and oncogenic signalling” (BMC Cancer, 2015)

Molecular target: T1, His6-PRMT5 (UniProt O14744 1-637)
T1 construct: PRMT5, cDNA AF167572.1 in pReceiver-B01 (GeneCopoeia EX-V1247-B01); also called protein arginine N-methyltransferase 5; source: E. coli BL21, purified (Ni-beads)
Experiment: pull-down; GST-CRN5 on glutathione-sepharose beads as bait; TEV-cleaved MAPK14 or purified His6-PRMT5 as prey; 50 mM Tris/HCl pH 8.0, 150 mM NaCl, 0.5 % NP-40; three washes; SDS-PAGE and immunoblot
Details: both partners purified

T1 sequence (O14744 whole entry): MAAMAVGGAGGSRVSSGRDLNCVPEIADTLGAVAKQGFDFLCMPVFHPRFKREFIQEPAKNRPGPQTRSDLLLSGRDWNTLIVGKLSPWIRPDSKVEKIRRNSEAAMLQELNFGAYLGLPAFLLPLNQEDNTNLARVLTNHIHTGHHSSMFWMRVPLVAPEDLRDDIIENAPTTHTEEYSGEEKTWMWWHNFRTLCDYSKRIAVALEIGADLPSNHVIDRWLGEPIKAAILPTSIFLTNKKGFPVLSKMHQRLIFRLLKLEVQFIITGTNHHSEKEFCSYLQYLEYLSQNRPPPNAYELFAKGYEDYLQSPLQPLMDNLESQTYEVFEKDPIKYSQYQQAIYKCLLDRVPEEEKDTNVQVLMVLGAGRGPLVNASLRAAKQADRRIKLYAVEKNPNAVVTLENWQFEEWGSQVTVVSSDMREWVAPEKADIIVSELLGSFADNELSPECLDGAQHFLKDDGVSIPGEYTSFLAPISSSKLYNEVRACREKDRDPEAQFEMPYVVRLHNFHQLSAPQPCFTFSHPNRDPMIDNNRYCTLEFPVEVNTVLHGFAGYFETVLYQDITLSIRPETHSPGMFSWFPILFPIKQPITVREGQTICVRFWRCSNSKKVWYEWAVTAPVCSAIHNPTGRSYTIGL

- binding result: binds
B1: GST-CRN5 (coronin 2A) (natural protein, human, UniProt Q92828 1-525, looked up)
chain: MSWHPQYRSSKFRHVFGKPASKENCYDSVPITRSVHDNHFCAVNPHFIAVVTECAGGGAFLVIPLHQTGKLDPHYPKVCGHRGNVLDVKWNPFDDFEIASCSEDATIKIWSIPKQLLTRNLTAYRKELVGHARRVGLVEWHPTAANILFSAGYDYKVMIWNLDTKESVITSPMSTISCHQDVILSMSFNTNGSLLATTCKDRKIRVIDPRAGTVLQEASYKGHRASKVLFLGNLKKLMSTGTSRWNNRQVALWDQDNLSVPLMEEDLDGSSGVLFPFYDADTSMLYVVGKGDGNIRYYEVSADKPHLSYLTEYRSYNPQKGIGVMPKRGLDVSSCEIFRFYKLITTKSLIEPISMIVPRRSESYQEDIYPPTAGAQPSLTAQEWLSGMNRDPILVSLRPGSELLRPHPLPAERPIFNSMAPASPRLLNQTEKLAAEDGWRSSSLLEEKMPRWAAEHRLEEKKTWLTNGFDVFECPPPKTENELLQMFYRQQEEIRRLRELLTQREVQAKQLELEIKNLRMGSEQL
notes: coronin 2A (CRN5), human cDNA NM_052820 (origene SC109892) cloned into pGEX-4T-1; pGEX-4T-1 normally places GST at the N-terminus (surmised); also called coronin 4; ClipinB; source: E. coli BL21, purified on glutathione beads (pull-down); E. coli lysate captured on CRN5 mAb K77-578-1 / Protein G microbeads (co-immunoprecipitation)
